Test results reported in the RNAGym collection of RNA variant scans (doi:10.1021/acssynbio.7b00057).

B1: Pistol ribozyme (parent)
chain: GGGUCGUUGUUCCAUAAUCGCGUGGAUAUGGCACGCAAGUUUCUACCGGGCACCGUAAAUGUCCGACUGGAGCCGUUCGGGCGGCUAUAAACAGACCUCAGGCCCGAAGCGUGGCGGCACCUGCCGCCGGUGGUAAAAAAGAUCGGAAGAGCACACGUCU

Variants of: B1
Assay: aptazyme ON/OFF ratio, guanine; higher = stronger switching; co-transcriptional cleavage with and without guanine

| Variant | aptazyme ON/OFF ratio |
| --- | --- |
| U7C U8C G9A U10A C12U | 1.69 |
| U7C U8C G9A U10A C12G | 1.39 |
| U7C U8C G9A U10A C12A | 1.44 |
| U7C U8C G9A C12A C13U | 1.42 |
| U7C U8C G9A C12A C13A | 1.24 |
| U7C U8C G9A C12A C13G | 1.05 |
| U7C U8C G9A U11A C12G C13U | 1.23 |
| U7C U8C G9A U11A C12G C13G | 1.17 |
| U7C U8C G9A U11A C12G C13A | 1.1 |
| U7C U8C G9A U10G U11A C12U | 1.11 |
| U7C U8C G9A U10G U11A C12G | 1.17 |
| U7C U8C G9A U10G U11A C12A | 1.37 |
| U7C U8C G9A U10A C12G C13U | 1.16 |
| U7C U8C G9A U10A C12G C13G | 1.27 |
| U7C U8C G9A U10A C12G C13A | 1.11 |
| U7C U8C G9A U10G U11C | 1.22 |
| U7C U8C G9A U10G U11G | 1.59 |
| U7C U8C G9A U10G U11A | 1.16 |
| U7C U8C G9A U10A U11C C12U | 1.2 |
| U7C U8C G9A U10A U11C C12A | 1.37 |
| U7C U8C G9A U10A U11C C12G | 1.23 |
| U7C U8C G9A U10G | 1.56 |
| U7C U8C G9A U10C | 1.45 |
| U7C U8C G9A U10A | 1.54 |

| Variant | aptazyme ON/OFF ratio |
| --- | --- |
| U7C U8C C12G | 1.18 |
| U7C U8C C12A | 1.37 |
| U7C U8C C12U | 1.75 |
| U7C U8C G9A U10C C13U | 1.52 |
| U7C U8C G9A U10C C13G | 1.35 |
| U7C U8C G9A U10C C13A | 1.47 |
| U7C U8C G9A U10C U11C C12U C13G | 1.24 |
| U7C U8C G9A U10C U11C C12U C13A | 1.2 |
| U7C U8C G9A U10C U11C C12U C13U | 1.32 |
| U7C U8C G9A U10C U11G C12G C13U | 1.17 |
| U7C U8C G9A U10C U11G C12G C13G | 1.41 |
| U7C U8C G9A U10C U11G C12G C13A | 1.23 |
| U7C U8C G9A U10G U11A C12U C13U | 1.23 |
| U7C U8C G9A U10G U11A C12U C13A | 1.19 |
| U7C U8C G9A U10G U11A C12U C13G | 1.19 |
| U7C U8A U10G U11G C12U C13A | 1.21 |
| U7C U8A U10G U11G C12U C13G | 1.22 |
| U7C U8A U10G U11G C12U C13U | 1.44 |
| U7C U8C G9A U11C C12U C13U | 1.18 |
| U7C U8C G9A U11C C12U C13A | 1.19 |
| U7C U8C G9A U11C C12U C13G | 1.08 |
| U7C U8A U10G U11C C12A C13G | 1.11 |
| U7C U8A U10G U11C C12A C13A | 1.37 |
| U7C U8A U10G U11C C12A C13U | 1.45 |

| Variant | aptazyme ON/OFF ratio |
| --- | --- |
| U7C U8A U11G C12U C13A | 1.29 |
| U7C U8A U11G C12U C13G | 1.13 |
| U7C U8A U11G C12U C13U | 1.37 |
| U7C U8C G9A U10A U11A C13G | 1.2 |
| U7C U8C G9A U10A U11A C13U | 1.25 |
| U7C U8C G9A U10A U11A C13A | 1.18 |
| U7C U8C G9A U10A U11C C12U C13U | 1.13 |
| U7C U8C G9A U10A U11C C12U C13G | 1.2 |
| U7C U8C G9A U10A U11C C12U C13A | 1.15 |
| U7C U8C G9A U10A C12A C13U | 1.21 |
| U7C U8C G9A U10A C12A C13A | 1.19 |
| U7C U8C G9A U10A C12A C13G | 1.12 |
| U7C U8C G9A C12G C13U | 1.24 |
| U7C U8C G9A C12G C13G | 1.28 |
| U7C U8C G9A C12G C13A | 1.25 |
| U7C U8C G9A U10C U11G C12A C13G | 1.16 |
| U7C U8C G9A U10C U11G C12A C13A | 1.28 |
| U7C U8C G9A U10C U11G C12A C13U | 1.52 |
| U7C U8C G9A U10G U11C C12A C13U | 1.17 |
| U7C U8C G9A U10G U11C C12A C13G | 1.07 |
| U7C U8C G9A U10G U11C C12A C13A | 1.2 |
| U7C U8C G9A U10C U11A C13U | 1.45 |
| U7C U8C G9A U10C U11A C13G | 1.04 |
| U7C U8C G9A U10C U11A C13A | 1.41 |

| Variant | aptazyme ON/OFF ratio |
| --- | --- |
| U7C U8C G9A U10G U11C C12U | 1.43 |
| U7C U8C G9A U10G U11C C12G | 1.12 |
| U7C U8C G9A U10G U11C C12A | 1.54 |
| U7C U8C G9A U10G C12U | 1.46 |
| U7C U8C G9A U10G C12A | 1.21 |
| U7C U8C G9A U10G C12G | 1.22 |
| U7C U8C G9A U11C C12A C13A | 1.29 |
| U7C U8C G9A U11C C12A C13U | 1.38 |
| U7C U8C G9A U11C C12A C13G | 1.19 |
| U7C U8C G9A U11C C12G C13G | 1.29 |
| U7C U8C G9A U11C C12G C13A | 1.34 |
| U7C U8C G9A U11C C12G C13U | 1.23 |
| U7C U8C G9A C12U | 1.72 |
| U7C U8C G9A C12A | 1.51 |
| U7C U8C G9A C12G | 1.41 |
| U7C U8C G9A U10G C13U | 1.37 |
| U7C U8C G9A U10G C13A | 1.27 |
| U7C U8C G9A U10G C13G | 1.12 |
| U7C U8C G9A U10G U11G C12A C13U | 1.15 |
| U7C U8C G9A U10G U11G C12A C13A | 1.2 |
| U7C U8C G9A U10G U11G C12A C13G | 1.1 |
| U7C U8C G9A U10C U11G C12A | 1.26 |
| U7C U8C G9A U10C U11G C12U | 1.21 |
| U7C U8C G9A U10C U11G C12G | 1.36 |

| Variant | aptazyme ON/OFF ratio |
| --- | --- |
| U7C U8C G9A U10G U11A C13G | 1.25 |
| U7C U8C G9A U10G U11A C13A | 1.1 |
| U7C U8C G9A U10G U11A C13U | 1.07 |
| U7C U8C G9A U10A U11G C12A C13U | 1.16 |
| U7C U8C G9A U10A U11G C12A C13G | 1.09 |
| U7C U8C G9A U10A U11G C12A C13A | 1.09 |
| U7C U8C G9A U10C C12U | 2.28 |
| U7C U8C G9A U10C C12A | 1.12 |
| U7C U8C G9A U10C C12G | 1.33 |
| U7C U8A U10G U11G C12G C13G | 1.17 |
| U7C U8A U10G U11G C12G C13A | 1.08 |
| U7C U8A U10G U11G C12G C13U | 1.25 |
| U7C U8A U10G U11G C12A C13U | 1.29 |
| U7C U8A U10G U11G C12A C13G | 1.09 |
| U7C U8A U10G U11G C12A C13A | 1.18 |
| U7C U8C G9A U10G U11G C12A | 1.23 |
| U7C U8C G9A U10G U11G C12G | 1.16 |
| U7C U8C G9A U10G U11G C12U | 1.25 |
| U7C U8A U11A C12U C13U | 1.24 |
| U7C U8A U11A C12U C13A | 1.16 |
| U7C U8A U11A C12U C13G | 1.15 |
| U7C U8C C12U C13U | 1.29 |
| U7C U8C C12U C13A | 1.41 |
| U7C U8C C12U C13G | 1.2 |

| Variant | aptazyme ON/OFF ratio |
| --- | --- |
| U7C U8C G9A U11A | 1.16 |
| U7C U8C G9A U11C | 1.82 |
| U7C U8C G9A U10G U11G C12G C13G | 1.14 |
| U7C U8C G9A U10G U11G C12G C13U | 1.11 |
| U7C U8C G9A U10G U11G C12G C13A | 1.15 |
| U7C U8C G9A U10A U11C C12A C13U | 1.31 |
| U7C U8C G9A U10A U11C C12A C13G | 1.18 |
| U7C U8C G9A U10A U11C C12A C13A | 1.17 |
| U7C U8C G9A U10A U11C C13A | 1.16 |
| U7C U8C G9A U10A U11C C13U | 1.11 |
| U7C U8C G9A U10A U11C C13G | 1.04 |
| U7C U8A U10G U11G C13U | 1.32 |
| U7C U8A U10G U11G C13G | 1.12 |
| U7C U8A U10G U11G C13A | 1.23 |
| U7C U8C G9A U10A U11A C12G C13G | 1.12 |
| U7C U8C G9A U10A U11A C12G C13U | 1.15 |
| U7C U8C G9A U10A U11A C12G C13A | 1.21 |
| U7C U8C G9A U11A C13A | 1.26 |
| U7C U8C G9A U11A C13G | 1.13 |
| U7C U8C G9A U11A C13U | 1.32 |
| U7C U8C G9A U10A C13U | 2.14 |
| U7C U8C G9A U10A C13A | 1.15 |
| U7C U8C G9A U10A C13G | 1.1 |
| U7C U8C G9A U10A U11G C12U C13U | 1.16 |

| Variant | aptazyme ON/OFF ratio |
| --- | --- |
| U7C U8C G9A U10A U11G C12U C13G | 1.21 |
| U7C U8C G9A U10A U11G C12U C13A | 1.13 |
| U7C U8C G9A U10G U11C C13G | 1.01 |
| U7C U8C G9A U10G U11C C13U | 1.17 |
| U7C U8C G9A U10G U11C C13A | 1.24 |
| U7C U8A U11C C12U C13G | 1.27 |
| U7C U8A U11C C12U C13A | 1.31 |
| U7C U8A U11C C12U C13U | 1.19 |
| U7C U8A U11G C13G | 1.06 |
| U7C U8A U11G C13A | 1.14 |
| U7C U8A U11G C13U | 1.19 |
| U7C U8C G9A U10G U11G C12U C13G | 1.11 |
| U7C U8C G9A U10G U11G C12U C13U | 1.14 |
| U7C U8C G9A U10G U11G C12U C13A | 1.1 |
| U7C U8C G9A U10A U11A C12A C13U | 1.19 |
| U7C U8C G9A U10A U11A C12A C13A | 1.2 |
| U7C U8C G9A U10A U11A C12A C13G | 1.16 |
| U7C U8C G9A U10C U11C C12A C13A | 1.39 |
| U7C U8C G9A U10C U11C C12A C13G | 1.17 |
| U7C U8C G9A U10C U11C C12A C13U | 1.31 |
| U7C U8A U11A C12A C13U | 1.26 |
| U7C U8A U11A C12A C13A | 1.12 |
| U7C U8A U11A C12A C13G | 1.08 |
